# ± gives the uncertainty stated by the source.
# B1: GAS2-like protein 1, residues 209 to 276; numbered along this chain, Q99501 (parent)
# chain: DELVREILGRCTCPDQFPMIKVSEGKYRVGDSSLLIFVRVLRSHVMVRVGGGWDTLEHYLDKHDPCRC
# Variants of: B1
# Assay: abundance fitness (aPCA) (normalised: wild type 0, dead -1); higher = more abundant; growth selection in yeast, the domain comes from the species named
# Conditions: Homo sapiens
row,Variant,abundance fitness
1,DELVREILGRCTCPDQFDMIKVSEGKYRVGDSSLLIFVRVLRSHVMVRVGGGWDTLEHYLDKHDPCRC [P18D],-0.207 ± 0.064
2,DELVREILGRCTCPDQFEMIKVSEGKYRVGDSSLLIFVRVLRSHVMVRVGGGWDTLEHYLDKHDPCRC [P18E],-0.132 ± 0.066
3,DELVREILGRCTCPDQFFMIKVSEGKYRVGDSSLLIFVRVLRSHVMVRVGGGWDTLEHYLDKHDPCRC [P18F],-0.645 ± 0.16
4,DELVREILGRCTCPDQFGMIKVSEGKYRVGDSSLLIFVRVLRSHVMVRVGGGWDTLEHYLDKHDPCRC [P18G],-0.475 ± 0.058
5,DELVREILGRCTCPDQFHMIKVSEGKYRVGDSSLLIFVRVLRSHVMVRVGGGWDTLEHYLDKHDPCRC [P18H],-0.222 ± 0.09
6,DELVREILGRCTCPDQFIMIKVSEGKYRVGDSSLLIFVRVLRSHVMVRVGGGWDTLEHYLDKHDPCRC [P18I],-0.524 ± 0.1
7,DELVREILGRCTCPDQFKMIKVSEGKYRVGDSSLLIFVRVLRSHVMVRVGGGWDTLEHYLDKHDPCRC [P18K],0.026 ± 0.063
8,DELVREILGRCTCPDQFLMIKVSEGKYRVGDSSLLIFVRVLRSHVMVRVGGGWDTLEHYLDKHDPCRC [P18L],-0.471 ± 0.054
9,DELVREILGRCTCPDQFMMIKVSEGKYRVGDSSLLIFVRVLRSHVMVRVGGGWDTLEHYLDKHDPCRC [P18M],-0.501 ± 0.085
10,DELVREILGRCTCPDQFNMIKVSEGKYRVGDSSLLIFVRVLRSHVMVRVGGGWDTLEHYLDKHDPCRC [P18N],-0.15 ± 0.079
11,DELVREILGRCTCPDQFQMIKVSEGKYRVGDSSLLIFVRVLRSHVMVRVGGGWDTLEHYLDKHDPCRC [P18Q],0.011 ± 0.072
12,DELVREILGRCTCPDQFRMIKVSEGKYRVGDSSLLIFVRVLRSHVMVRVGGGWDTLEHYLDKHDPCRC [P18R],-0.012 ± 0.033
13,DELVREILGRCTCPDQFSMIKVSEGKYRVGDSSLLIFVRVLRSHVMVRVGGGWDTLEHYLDKHDPCRC [P18S],-0.043 ± 0.045
14,DELVREILGRCTCPDQFWMIKVSEGKYRVGDSSLLIFVRVLRSHVMVRVGGGWDTLEHYLDKHDPCRC [P18W],-0.809 ± 0.12
15,DELVREILGRCTCPDQFYMIKVSEGKYRVGDSSLLIFVRVLRSHVMVRVGGGWDTLEHYLDKHDPCRC [P18Y],-0.669 ± 0.14
16,DELVREILGRCTCPDQFPAIKVSEGKYRVGDSSLLIFVRVLRSHVMVRVGGGWDTLEHYLDKHDPCRC [M19A],-0.539 ± 0.061
17,DELVREILGRCTCPDQFPCIKVSEGKYRVGDSSLLIFVRVLRSHVMVRVGGGWDTLEHYLDKHDPCRC [M19C],-0.664 ± 0.24
18,DELVREILGRCTCPDQFPDIKVSEGKYRVGDSSLLIFVRVLRSHVMVRVGGGWDTLEHYLDKHDPCRC [M19D],-1.18 ± 0.33
19,DELVREILGRCTCPDQFPEIKVSEGKYRVGDSSLLIFVRVLRSHVMVRVGGGWDTLEHYLDKHDPCRC [M19E],-1.02 ± 0.36
20,DELVREILGRCTCPDQFPFIKVSEGKYRVGDSSLLIFVRVLRSHVMVRVGGGWDTLEHYLDKHDPCRC [M19F],0.171 ± 0.071

row,Variant,abundance fitness
1,DELVREILGRCTCPDQFPGIKVSEGKYRVGDSSLLIFVRVLRSHVMVRVGGGWDTLEHYLDKHDPCRC [M19G],-0.845 ± 0.17
2,DELVREILGRCTCPDQFPHIKVSEGKYRVGDSSLLIFVRVLRSHVMVRVGGGWDTLEHYLDKHDPCRC [M19H],-0.429 ± 0.13
3,DELVREILGRCTCPDQFPIIKVSEGKYRVGDSSLLIFVRVLRSHVMVRVGGGWDTLEHYLDKHDPCRC [M19I],-0.345 ± 0.083
4,DELVREILGRCTCPDQFPKIKVSEGKYRVGDSSLLIFVRVLRSHVMVRVGGGWDTLEHYLDKHDPCRC [M19K],-0.527 ± 0.27
5,DELVREILGRCTCPDQFPLIKVSEGKYRVGDSSLLIFVRVLRSHVMVRVGGGWDTLEHYLDKHDPCRC [M19L],-0.011 ± 0.044
6,DELVREILGRCTCPDQFPNIKVSEGKYRVGDSSLLIFVRVLRSHVMVRVGGGWDTLEHYLDKHDPCRC [M19N],-0.74 ± 0.3
7,DELVREILGRCTCPDQFPPIKVSEGKYRVGDSSLLIFVRVLRSHVMVRVGGGWDTLEHYLDKHDPCRC [M19P],-1.05 ± 0.26
8,DELVREILGRCTCPDQFPQIKVSEGKYRVGDSSLLIFVRVLRSHVMVRVGGGWDTLEHYLDKHDPCRC [M19Q],-0.961 ± 0.25
9,DELVREILGRCTCPDQFPRIKVSEGKYRVGDSSLLIFVRVLRSHVMVRVGGGWDTLEHYLDKHDPCRC [M19R],-0.516 ± 0.081
10,DELVREILGRCTCPDQFPSIKVSEGKYRVGDSSLLIFVRVLRSHVMVRVGGGWDTLEHYLDKHDPCRC [M19S],-0.895 ± 0.13
11,DELVREILGRCTCPDQFPTIKVSEGKYRVGDSSLLIFVRVLRSHVMVRVGGGWDTLEHYLDKHDPCRC [M19T],-0.96 ± 0.17
12,DELVREILGRCTCPDQFPWIKVSEGKYRVGDSSLLIFVRVLRSHVMVRVGGGWDTLEHYLDKHDPCRC [M19W],-0.121 ± 0.079
13,DELVREILGRCTCPDQFPMAKVSEGKYRVGDSSLLIFVRVLRSHVMVRVGGGWDTLEHYLDKHDPCRC [I20A],-0.216 ± 0.08
14,DELVREILGRCTCPDQFPMCKVSEGKYRVGDSSLLIFVRVLRSHVMVRVGGGWDTLEHYLDKHDPCRC [I20C],-0.366 ± 0.1
15,DELVREILGRCTCPDQFPMEKVSEGKYRVGDSSLLIFVRVLRSHVMVRVGGGWDTLEHYLDKHDPCRC [I20E],-0.016 ± 0.087
16,DELVREILGRCTCPDQFPMFKVSEGKYRVGDSSLLIFVRVLRSHVMVRVGGGWDTLEHYLDKHDPCRC [I20F],-0.096 ± 0.069
17,DELVREILGRCTCPDQFPMGKVSEGKYRVGDSSLLIFVRVLRSHVMVRVGGGWDTLEHYLDKHDPCRC [I20G],-0.498 ± 0.073
18,DELVREILGRCTCPDQFPMHKVSEGKYRVGDSSLLIFVRVLRSHVMVRVGGGWDTLEHYLDKHDPCRC [I20H],0.167 ± 0.12
19,DELVREILGRCTCPDQFPMKKVSEGKYRVGDSSLLIFVRVLRSHVMVRVGGGWDTLEHYLDKHDPCRC [I20K],-0.037 ± 0.2
20,DELVREILGRCTCPDQFPMLKVSEGKYRVGDSSLLIFVRVLRSHVMVRVGGGWDTLEHYLDKHDPCRC [I20L],-0.151 ± 0.06
